Laboratory results published in patent publication US8394607B2, “Anti-CD22 antibodies and immunoconjugates and methods of use” (Genentech, Inc., priority 2006, dated 2013).

How the values were obtained:
[1] = biological target: T1, human CD22-beta-ECD-His tagged soluble antigen (Homo sapiens, UniProt P20273, A486R/Y639H); assay: BIACORE surface plasmon resonance binding to soluble CD22 ECD; details: BIACORE 3000, 25° C., antibody coupled to chip, soluble CD22 ECD injected; one-to-one Langmuir model
T1 sequence (P20273 22-681 A486R/Y639H): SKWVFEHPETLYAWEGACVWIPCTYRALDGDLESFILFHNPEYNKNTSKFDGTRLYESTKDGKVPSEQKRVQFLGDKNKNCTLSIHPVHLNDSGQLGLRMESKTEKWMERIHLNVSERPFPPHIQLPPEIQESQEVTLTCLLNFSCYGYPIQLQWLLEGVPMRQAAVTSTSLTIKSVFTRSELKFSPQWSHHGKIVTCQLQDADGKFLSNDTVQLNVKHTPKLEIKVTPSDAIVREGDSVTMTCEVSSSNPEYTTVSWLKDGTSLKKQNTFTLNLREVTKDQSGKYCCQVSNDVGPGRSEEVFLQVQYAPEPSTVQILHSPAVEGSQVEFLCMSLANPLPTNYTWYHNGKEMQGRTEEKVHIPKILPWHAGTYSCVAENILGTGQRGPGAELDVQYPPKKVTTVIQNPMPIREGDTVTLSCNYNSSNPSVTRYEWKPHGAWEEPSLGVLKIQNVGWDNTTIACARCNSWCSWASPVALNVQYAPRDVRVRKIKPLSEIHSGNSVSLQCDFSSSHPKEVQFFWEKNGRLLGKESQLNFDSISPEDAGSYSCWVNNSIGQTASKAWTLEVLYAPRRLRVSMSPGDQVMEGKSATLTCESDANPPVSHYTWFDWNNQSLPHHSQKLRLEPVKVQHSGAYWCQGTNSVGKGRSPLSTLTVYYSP
Method: The binding affinity of murine and humanized 10F4 antibody for soluble CD22 extracellular domain (ECD) was determined by surface plasmon resonance measurement using a BIACORE® 3000 system (Biacore, Inc., Piscataway, N.J.). Briefly, carboxymethylated dextran biosensor chips (CMS, Biacore Inc.) were activated with N-ethyl-N′-(3-dimethylaminopropyl)-carbodiimide hydrochloride (EDC) and N-hydroxysuccinimide (NHS) according to the supplier's instructions. These activated chips were coated with anti-CD22 IgG1 antibody 10F4 (murine or humanized) by dilution to 5 μg/ml with 10 mM sodium acetate, pH 4.8, before injection at a flow rate of 5 μl/minute to achieve approximately 500 response units (RU) of coupled antibody. Next, 1M ethanolamine was injected to block unreacted groups. […] Association rates (kon) and dissociation rates (koff) were calculated using a simple one-to-one Langmuir binding model (BIAevaluation Software version 3.2). The equilibrium dissociation constant (Kd) was calculated as the ratio koff/kon. Anti-CD22 antibody, RFB4, was used as a control (Chemicon International, Inc., Temecula, Calif., catalog no. CBL147).

[2] = test system: human CD22 (CD22beta) lacking domain 1, domain 2, or domains 3 and 4; assay: Epitope mapping by flow cytometry on CHO cells expressing CD22 domain deletion variants; assay type: binding
Method: (§1) The epitopes of CD22 to which 10F4.4.1 and 5E8.1.8 antibodies bound were determined according to the following procedures. CD22 sequences lacking various of the seven immunoglobulin-like domains of the major CD22 isoform (CD22beta) were cloned and transformed into cells for stable expression. For example, CD22 variants lacking domain 1 (Δ1), domain 2 (Δ2), or domains 3 and 4 (Δ3,4) were cloned, transformed into CHO cells, and expressed on the cells. Control cells expressed CD22beta. Deletions were performed using Stratagene QuikChange XL™ reagent kit. Deletion of domain 1 was performed by deletion of amino acids 22-138; deletion of domain 2 was performed by deletion of amino acids 139-242; and deleted domains 3 and 4 were available as the minor isoform CD22alpha (deletion of amino acids 241-417). All amino acid numbers refer to the numbering of full length precursor CD22beta by Wilson, G. L. et al. (see FIG. 1 in Wilson, G. L. et al., J. Exp. Med. 173:137-146 (1991)). FIG. 14 is a diagram of the deleted domains. Binding was determined by flow cytometry using an isotype control. Binding of 10F4.4.1 was detected using goat anti-mouse IgG Alexa 488. Binding of 5E8.1.8 was detected using biotinylated goat anti-mouse IgG plus streptavidin PE. […] Neither bound CD22 lacking domain 1 or domain 2, and both bound CD22 comprising domains 1 and 2, but lacking domains 3 and 4.

[3] = biological target: T2, human CD22 (CD22beta) lacking domain 1, domain 2, or domains 3 and 4 (Homo sapiens, UniProt P20273); assay: as above; assay type: binding; details: flow cytometry, CHO cells
T2 construct: expressed in transfected cells
T2 sequence (P20273 22-670 isoform P20273-2): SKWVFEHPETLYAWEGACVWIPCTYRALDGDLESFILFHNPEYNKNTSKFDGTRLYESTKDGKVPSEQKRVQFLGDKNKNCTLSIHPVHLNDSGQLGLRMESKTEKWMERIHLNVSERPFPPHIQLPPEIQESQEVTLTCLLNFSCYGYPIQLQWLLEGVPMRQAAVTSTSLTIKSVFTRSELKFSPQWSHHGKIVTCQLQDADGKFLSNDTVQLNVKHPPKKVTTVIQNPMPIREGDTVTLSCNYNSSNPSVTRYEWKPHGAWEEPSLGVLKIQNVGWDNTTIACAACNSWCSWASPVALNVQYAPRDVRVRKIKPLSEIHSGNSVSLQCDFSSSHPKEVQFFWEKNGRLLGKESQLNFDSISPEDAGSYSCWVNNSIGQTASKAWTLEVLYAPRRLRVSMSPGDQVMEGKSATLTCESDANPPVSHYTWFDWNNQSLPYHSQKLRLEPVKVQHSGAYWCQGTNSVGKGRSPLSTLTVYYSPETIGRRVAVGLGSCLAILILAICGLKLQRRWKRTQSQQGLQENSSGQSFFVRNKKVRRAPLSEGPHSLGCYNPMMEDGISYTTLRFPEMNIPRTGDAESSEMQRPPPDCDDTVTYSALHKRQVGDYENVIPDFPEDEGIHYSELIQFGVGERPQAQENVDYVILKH
Method: as §1

[4] = test system: human CD22; assay: ELISA plate assays and FACS cell-based assays for selection of hybridoma antibodies; assay type: binding
Method: Murine monoclonal antibodies capable of specifically binding human CD22 was prepared. BALB/c female mice, age six weeks, were immunized in their foot pads with purified human CD22 his-8 tagged extracellular domain lacking domains 3 and 4 (SEQ ID NO:30 (ECD) plus the sequence […] at the C-terminus) or CD22 his-8 tagged extracellular domain comprising domains 1-7 (SEQ ID NO:28 (ECD) plus the above His sequence tag) in Ribi's adjuvant. Subsequent injections were performed in the same manner at one and three weeks after the initial immunizations. […]
ELISA-based assays: Anti-CD22 antibody screening by ELISA is performed as follows, with all incubations done at room temperature. […] Data is obtained by reading the plates in an automated ELISA plate reader at an absorbance of 490 nm.
CHO cells expressing human CD22 on their surface were incubated with anti-CD22 hybridoma supernatant in 100 μl FACS buffer (0.1% BSA, 10 mM sodium azide in PBS, pH 7.4) for 30 minutes at 4° C. followed by one wash with FACS buffer. The amount of anti-CD22 binding was determined by incubating an aliquot of the antibody/cell mixture with a polyclonal FITC conjugated goat or rabbit anti-mouse IgG (Accurate Chem. Co., Westbury, N.Y.) (for murine test antibodies) or goat or rabbit anti-human IgG (for humanized antibodies) for 30 minutes at 4° C. followed by three washes with FACS buffer.

Chain of human CD22 (P20273 20-240 limits assumed): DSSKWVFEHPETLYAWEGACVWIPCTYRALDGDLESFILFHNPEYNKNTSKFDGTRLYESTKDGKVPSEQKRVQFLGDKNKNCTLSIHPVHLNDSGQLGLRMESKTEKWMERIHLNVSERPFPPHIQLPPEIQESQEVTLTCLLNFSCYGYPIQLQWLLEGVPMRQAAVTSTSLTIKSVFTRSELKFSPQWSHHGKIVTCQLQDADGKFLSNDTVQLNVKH

- koff/10^−4 [1]: 2.8
- kon/10^5 [1]: 0.19
- binding to CD22 comprising domains 1 and 2 but lacking domains 3 and 4 [3]: both bound
B1: Mu 10F4.4.1: murine anti-human CD22 monoclonal antibody, hybridoma ATCC PTA-7621 (antibody, V domains shown)
VH: QVQLQQSGPELVKPGASVKISCKASGYEFSRSWMNWVKQRPGQGREWIGRIYPGDGDTNYSGKFKGKATLTADKSSSTAYMQLSSLTSVDSAVYFCARDGSSWDWYFDVWGAGTTVTVSS
VL: DILMTQTPLSLPVSLGDQASISCRSSQSIVHSNGNTFLEWYLQKPGQSPKLLIYKVSNRFSGVPDRFSGSGSGTDFTLKISRVEAEDLGVYYCFQGSQFPYTFGGGTKVEIK
- binding to CD22 lacking domain 1 or domain 2 ([2]; flow cytometry, CHO cells): Neither bound
- epitope (CD22 domains bound) ([2]; within amino acid 22 to amino acid 240 of SEQ ID NO:27): domains 1 and 2 of human CD22
- specific binding to human CD22 [4]: bind specifically to human CD22
